Experimental data reported in patent US20150005534A1.

Molecular target: CYP97C2 (rice) expressed in E. coli from pRQ-C2 (pCDFDuet-1-CYP97C2) (Rice (O. sativa))
Experiment: cell-based or functional assay

lutein, % of total carotenoids in alpha- and beta-carotene accumulating E. coli with co-expressed hydroxylases (% of total carotenoids) | Substance
29 | CYP97A4 (rice) expressed in E. coli from pRT-A4 (pCOLADuet-1-CYP97A4) (enzyme)
1.58 | HYD4 (maize) expressed in E. coli from pRQ-H4 (pCOLADuet-1-HYD4) (enzyme)
